From PMC12208556

Molecular target: recombinant full-length thrombospondin-1 (human) (UniProt P07996)
Assay: SPR; BIAcore 3000; TSP-1 bound covalently to CM5 chips at 0.1 uM; complement proteins as analytes at 12.3, 37.03, 111.1, 333.3, 1,000 nM in PBS plus 0.05% Tween 20; 1:1 Langmuir binding model; average of 3 repeated measurements

Chain of recombinant full-length thrombospondin-1 (human) (P07996 19-1170): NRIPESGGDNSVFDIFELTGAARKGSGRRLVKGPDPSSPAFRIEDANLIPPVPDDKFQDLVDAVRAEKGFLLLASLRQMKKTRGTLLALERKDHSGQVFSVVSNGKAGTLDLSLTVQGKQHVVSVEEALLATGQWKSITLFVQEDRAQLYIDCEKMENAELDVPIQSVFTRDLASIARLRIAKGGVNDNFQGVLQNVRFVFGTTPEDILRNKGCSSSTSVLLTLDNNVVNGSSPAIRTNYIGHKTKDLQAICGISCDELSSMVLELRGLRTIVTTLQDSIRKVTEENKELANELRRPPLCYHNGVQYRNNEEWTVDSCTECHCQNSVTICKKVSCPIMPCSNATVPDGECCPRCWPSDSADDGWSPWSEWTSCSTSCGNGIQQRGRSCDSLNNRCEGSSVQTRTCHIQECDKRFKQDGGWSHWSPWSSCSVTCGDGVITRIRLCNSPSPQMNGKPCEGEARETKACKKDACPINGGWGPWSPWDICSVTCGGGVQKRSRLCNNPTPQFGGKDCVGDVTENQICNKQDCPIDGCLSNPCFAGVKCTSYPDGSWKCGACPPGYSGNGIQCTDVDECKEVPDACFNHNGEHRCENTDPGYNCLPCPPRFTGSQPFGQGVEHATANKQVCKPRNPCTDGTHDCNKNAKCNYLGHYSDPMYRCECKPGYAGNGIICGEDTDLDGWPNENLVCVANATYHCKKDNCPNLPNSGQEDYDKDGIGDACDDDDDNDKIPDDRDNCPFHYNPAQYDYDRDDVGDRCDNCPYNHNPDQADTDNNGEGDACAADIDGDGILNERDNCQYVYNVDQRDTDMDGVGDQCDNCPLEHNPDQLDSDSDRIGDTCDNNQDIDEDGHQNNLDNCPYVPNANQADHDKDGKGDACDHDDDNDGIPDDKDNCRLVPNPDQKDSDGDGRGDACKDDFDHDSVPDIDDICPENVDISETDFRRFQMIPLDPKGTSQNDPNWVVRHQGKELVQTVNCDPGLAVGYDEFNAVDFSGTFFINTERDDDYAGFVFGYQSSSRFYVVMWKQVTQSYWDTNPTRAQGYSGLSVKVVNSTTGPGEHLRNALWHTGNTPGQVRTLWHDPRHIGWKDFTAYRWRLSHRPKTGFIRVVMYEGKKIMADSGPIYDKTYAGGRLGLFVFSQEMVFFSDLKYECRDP

Work on complement C3 (natural protein) yielded a Kd of 127 nM.
For complement C5 (natural protein), the Kd was 47.2 nM.
